The target in experiment [1] is CPSF6_(313–327) peptide (cleavage and polyadenylation specific factor 6, residues 313–327) (UniProt Q16630-2 313-327, N-terminal His tag omitted; strain not given, isolate Petaluma taken; CA residues 1-139 by alignment to HIV-1 CA 1-146). Description: ITC.
For experiment [2], the target named is CPSF6_(313–327) peptide (cleavage and polyadenylation specific factor 6, residues 313–327) (UniProt Q16630-2 313-327). Description: ITC.

B1: FIV CA N-terminal domain (CA^N) (domain or fragment)
chain: PIQTVNGVPQYVALDPKMVSIFMEKAREGLGGEEVQLWFTAFSANLTPTDMATLIMAAPGCAADKEILDESLKQLTAEYDRTHPPDAPRPLPYFTAAEIMGIGLTQEQQAEARFAPARMQCRAWYLEALGKLAAIKAKS
For the molecule B1, in experiment [1], binding was characterised by a dissociation constant (Kd) of 242 µM.

B2: HIV-2 CA N-terminal domain (CA^N) (domain or fragment)
chain: not shown
Regarding B2, the affinity in experiment [2], expressed as Kd, was 350 µM.
